Measured values reported in publication PMC11510446, “Establishing a Relationship between In Vitro Potency in Cell-Based Assays and Clinical Efficacious Concentrations for Approved GLP-1 Receptor Agonists” (Pharmaceutics, 2024).
Like-named read-outs stand apart in the source and are kept apart here.

Key:
[1] = human, cited from earlier work
Text: Pharmacokinetic parameters representing rate of absorption (Ka), central clearance (CL), central volume (Vc), peripheral volume (Vp), distribution clearance (CLd), bioavailability (F) and lag- time (Tlag).

human GLP-1R = human GLP-1R (Homo sapiens, UniProt P43220); experiment: cAMP accumulation assay (HTRF) in stable CHO cell line expressing human GLP-1R; format: cell-based
Experimental: Cell-based cyclic adenosine monophosphate (cAMP) accumulation assays were used to measure in vitro potency for GLP-1RAs in a stable Chinese hamster ovary (CHO) cell line expressing human GLP-1R (generated at AstraZeneca) or EndoC-βH1 cells endogenously expressing the GLP-1R (Endocells, Paris, France) as previously described. In brief, test GLP-1RA serial dilutions were prepared using an ECHO® acoustic liquid handler (Beckman, High Wycombe, UK) to obtain an 11-point dose–response curve in assay buffer (Hanks’ balanced salt solution (HBSS)) supplemented with 25 mM of HEPES and 0.5 mM of 3-isobutyl-1-methylxanthine (IBMX). […] The EndoC-βH1 cell assay was performed in an assay buffer containing 0.1% BSA.
Following compound and cell incubation for 30 min, the level of cAMP accumulation was determined using a cAMP dynamic 2 HTRF (homogeneous time-resolved fluorescence) kit (Cisbio, Codolet, France), following the two-step protocol according to the manufacturer’s guidelines. Treated cells were incubated with anti-cAMP cryptate and cAMP-d2 in lysis buffer at room temperature for 1 h and read on an Envision plate reader (PerkinElmer, Waltham, MA, USA).

human GLP-1R, sequence (P43220 24-463): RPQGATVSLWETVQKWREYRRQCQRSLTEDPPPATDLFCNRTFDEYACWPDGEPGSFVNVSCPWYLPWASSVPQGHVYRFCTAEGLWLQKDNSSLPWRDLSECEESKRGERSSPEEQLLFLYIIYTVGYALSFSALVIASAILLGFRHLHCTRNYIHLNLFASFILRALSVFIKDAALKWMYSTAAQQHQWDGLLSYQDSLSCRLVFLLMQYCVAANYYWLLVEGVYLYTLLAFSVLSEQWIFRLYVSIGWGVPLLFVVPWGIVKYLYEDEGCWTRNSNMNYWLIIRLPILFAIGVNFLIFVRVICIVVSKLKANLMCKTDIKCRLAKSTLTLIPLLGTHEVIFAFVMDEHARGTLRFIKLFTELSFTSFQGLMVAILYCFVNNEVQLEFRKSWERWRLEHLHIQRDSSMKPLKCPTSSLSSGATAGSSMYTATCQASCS

EC50 (human GLP-1R; read-out: EC50 (pM) 0.1%, NSB = BSA, shift assay Table S1A, 0.1% BSA) [pM]	EC50 (human GLP-1R; read-out: EC50 (pM) 0.1%, NSB = OA, shift assay Table S1B, 0.1% ovalbumin) [pM]	EC50 (human GLP-1R; read-out: EC50 (pM) 0.3%, NSB = BSA, shift assay Table S1A, 0.3% BSA) [pM]	EC50 (human GLP-1R; read-out: EC50 (pM) 0.3%, NSB = OA, shift assay Table S1B, 0.3% ovalbumin) [pM]	EC50 (human GLP-1R; read-out: EC50 (pM) 1%, NSB = BSA, shift assay Table S1A, 1% BSA) [pM]	EC50 (human GLP-1R; read-out: EC50 (pM) 1%, NSB = OA, shift assay Table S1B, 1% ovalbumin) [pM]	EC50 (human GLP-1R; read-out: EC50 (pM) 3%, NSB = BSA, shift assay Table S1A, 3% BSA) [pM]	EC50 (human GLP-1R; read-out: EC50 (pM) 3%, NSB = OA, shift assay Table S1B, 3% ovalbumin) [pM]	Compound	lag-time Tlag ([1]; T2D, ref [7] (supplement references)) [h]	bioavailability F ([1]; fraction, dulaglutide value at 1.5 mg, ref [4] dulaglutide, [5] semaglutide oral, [6] semaglutide sc, [7] liraglutide (supplement references))	central clearance CL ([1]; population PK, T2D (semaglutide oral: T2D, obesity), ref [4] dulaglutide, [5] semaglutide oral, [6] semaglutide sc, [7] liraglutide (supplement references)) [L/h]	bioavailability F ([1]; in vivo)	central clearance CL ([1]; in vivo) [L/h]	central volume Vc ([1]; in vivo) [L]	distribution clearance CLd ([1]; in vivo) [L/h]	peripheral volume Vp ([1]; in vivo) [L]	rate of absorption Ka ([1]; in vivo) [h⁻¹]
–	–	–	–	–	–	–	–	CCCCCCCCCCCCCCCC(=O)N[C@@H](CCC(=O)NCCCC[C@H](NC(=O)[C@H](C)NC(=O)[C@H](C)NC(=O)[C@H](CCC(N)=O)NC(=O)CNC(=O)[C@H](CCC(=O)O)NC(=O)[C@H](CC(C)C)NC(=O)[C@H](Cc1ccc(O)cc1)NC(=O)[C@H](CO)NC(=O)[C@H](CO)NC(=O)[C@@H](NC(=O)[C@H](CC(=O)O)NC(=O)[C@H](CO)NC(=O)[C@@H](NC(=O)[C@H](Cc1ccccc1)NC(=O)[C@@H](NC(=O)CNC(=O)[C@H](CCC(=O)O)NC(=O)[C@H](C)NC(=O)[C@@H](N)Cc1cnc[nH]1)[C@@H](C)O)[C@@H](C)O)C(C)C)C(=O)N[C@@H](CCC(=O)O)C(=O)N[C@@H](Cc1ccccc1)C(=O)N[C@H](C(=O)N[C@@H](C)C(=O)N[C@@H](Cc1c[nH]c2ccccc12)C(=O)N[C@@H](CC(C)C)C(=O)N[C@H](C(=O)N[C@@H](CCCNC(=N)N)C(=O)NCC(=O)N[C@@H](CCCNC(=N)N)C(=O)NCC(=O)O)C(C)C)[C@@H](C)CC)C(=O)O [Liraglutide]	6	0.51	0.91	–	–	–	–	–	–
9.07	46.4	10.8	34.1	12.1	30.7	9.7	26	Dulaglutide: a DPP-IV-protected GLP-1 analog covalently linked to a human IgG4-Fc heavy chain by a peptide linker	–	–	–	0.47	0.0593	2.25	0.0201	3.75	0.00769
